Results from patent US20080161234A1, “Composition Comprising Lactic Acid and Lactoferrin” (priority 2004, published 2008).

Columns and labels:
Assay type in all cases: cell-based
[1] = tested on: P. bivia strains (Pb 57, Pb 62); experiment: Growth inhibition of P. bivia by LF, spectrophotometric, 20 h anaerobic; details: LF in various concentrations, no lactate, 0.34% BHI
Description: The bacteria were incubated in 0.34% BHI under anaerobic conditions for 20 hours.
(§1) G. vaginalis and P. bivia were cultured on chocolate-GL-plates for 48 h in anaerobic milieu. The bacteria were harvested and suspended in BHI for further incubation (4 hours at 37° C.). The bacteria were washed twice in Bactopeptone (BP, 0.2%). The concentration was adjusted spectrophotometrically and diluted to 1×10^7 bacteria per ml.
(§2) The procedure for the microbicidal assay with regard to G. vaginalis and P. bivia was as described above except that the microplate was incubated under anaerobic conditions (2 h). Thereafter droplets of the solutions were analyzed for viable bacteria on blood agar plates after 48 h of anaerobic incubation at 37° C.
The microbicidal assay was modified in order to obtain survival conditions for G. vaginalis and P. bivia. Instead of 0.2% BP 0.34% BHI was used. The bacterial strains were analyzed with only LF added in various concentrations to the wells (no lactate present). The plate was incubated for 20 hours.

L. gasseri = experiment: Survival of L. gasseri in lactate with LF; details: LF 2 mg/ml, lactate 1%, 0.34% BHI, CO2, 3 h
Description: L. gasseri and L. jensenii were cultured on chocolate-agar plates for 24 h in 5% CO2/95% air. They were thereafter harvested and added to BHI (0.34%). After washing the bacterial solutions were adjusted spectrophotometrically and diluted to 8×10^6 bacteria/ml.
(§3) Washed cells were suspended in 0.2% BP (pH 7.0) or BHI medium diluted 1/10 (0.34%, pH 6.7-6.9) (Difco, USA). The concentration of bacterial or fungal cells was spectrophotometrically adjusted. LF or peptide, serially diluted in BHIdil or BP by twofold steps (unless otherwise stated), were added in triplicate to the wells of a microtiterplate (200 ul per well). The bacterial or yeast cell solutions were added in 10 ul volumes to give a final concentration of approximately 2×10^5 cells per ml. The concentration of the stock solution was always checked by viable counts. The microplate was incubated at 37° C. in a humid chamber for 2 h unless otherwise stated. Five ul were taken from each well and added as a drop onto a blood agar plate and incubated over night at 37° C. In some experiments more thorough viable counts were performed and the killing was expressed as remaining colony forming units in relation to the inoculum. The lower limit for detection of microorganisms was 200 CFU/ml.
L. gasseri survived better in the assay system than did L. jensenii. Undiluted lactate (5%) affected the survival of Lactobacillus.

G. vaginalis = experiment: Minimal bactericidal concentration (MBC99) of LF on G. vaginalis strains; details: concentration at which 99% killing was obtained, fivefold serial steps
Description: as §1, §2
Instead of 0.2% BP 0.34% BHI was used. […] The plate was incubated for 20 hours.

[2] = tested on: S. aureus 1800 (CCUG 1800); experiment: Microbicidal microplate-droplet assay, S. aureus; parameters: key to S. aureus killing, growth grade in droplet assay: +++ = the number of colony forming units contained within 5 ul of a droplet formed a smooth layer of bacteria.; (+++): (parenthesis = a tendency towards a ruffled area compared with the control).; 0 = no bacteria in triplicate samples of 5 ul (>99.95 killed of the inoculum)
Description: as §3, with “The bacterial strains S. aureus 1800 (CCUG 1800), E. coli 06, and the yeast C. albicans (ATCC 64549) have been used in the microplate assay. All microorganisms were cultured in brain heart infusion medium (BHI) on a shaker over night at 37° C. A volume of the culture was transferred to a new tube with BHI and incubated for two more h on the shaker. The bacteria were harvested in the log phase, washed once and thereafter suspended in the broth used for the microplate assay. The suspension was adjusted spectrophotometrically and diluted to a concentration of approximately 4×10^6 cells per ml at 650 nm. Washed” for “Washed”, “CFU/ml. The antimicrobial activity of human LF was analysed by the microbicidal assay described above. Different microbes such as C. albicans, E. coli and S. aureus were analysed with respect to their survival in lactate (not containing the inert gel base, which makes the gel unsuitable for the microbicidal assay) containing LF.” for “CFU/ml.”

B1: LF: LF from human milk purchased from Sigma; single chain iron-binding glycoprotein (protein, UniProt P02788 20-710, looked up)
Lactotransferrin: GRRRSVQWCAVSQPEATKCFQWQRNMRKVRGPPVSCIKRDSPIQCIQAIAENRADAVTLDGGFIYEAGLAPYKLRPVAAEVYGTERQPRTHYYAVAVVKKGGSFQLNELQGLKSCHTGLRRTAGWNVPIGTLRPFLNWTGPPEPIEAAVARFFSASCVPGADKGQFPNLCRLCAGTGENKCAFSSQEPYFSYSGAFKCLRDGAGDVAFIRESTVFEDLSDEAERDEYELLCPDNTRKPVDKFKDCHLARVPSHAVVARSVNGKEDAIWNLLRQAQEKFGKDKSPKFQLFGSPSGQKDLLFKDSAIGFSRVPPRIDSGLYLGSGYFTAIQNLRKSEEEVAARRARVVWCAVGEQELRKCNQWSGLSEGSVTCSSASTTEDCIALVLKGEADAMSLDGGYVYTAGKCGLVPVLAENYKSQQSSDPDPNCVDRPVEGYLAVAVVRRSDTSLTWNSVKGKKSCHTAVDRTAGWNIPMGLLFNQTGSCKFDEYFSQSCAPGSDPRSNLCALCIGDEQGENKCVPNSNERYYGYTGAFRCLAENAGDVAFVKDVTVLQNTDGNNNEAWAKDLKLADFALLCLDGKRKPVTEARSCHLAMAPNHAVVSRMDKVERLKQVLLHQQAKFGRNGSDCPDKFCLFQSETKNLLFNDNTECLARLHGKTTYEKYLGPQYVAGITNLKKCSTSPLLEACEFLRK
[1]
  growth inhibition of P. bivia: Growth inhibition
L. gasseri
  survival of L. gasseri: 18%
G. vaginalis; G. vaginalis strain code 12
  MBC99: 500 µg/mL
G. vaginalis; G. vaginalis strain code 17
  MBC99: >2500 µg/mL
G. vaginalis; G. vaginalis strain code 23
  MBC99: 1000 µg/mL
G. vaginalis; G. vaginalis strain code 51
  MBC99: 100 µg/mL
G. vaginalis; G. vaginalis strain code 90
  MBC99: 4 µg/mL
G. vaginalis; G. vaginalis strain code 96
  MBC99: 100 to 500 µg/mL
[2]; HLF 500 ug/ml, lactate 0.2%, 2 h incubation
  S. aureus killing, percentage of bacteria remaining in relation to the inoculum: 0 (0 = no bacteria in triplicate samples of 5 ul (>99.95 killed of the inoculum).)
[2]; HLF 500 ug/ml, lactate 0.2%, 5 h incubation
  S. aureus killing, percentage of bacteria remaining in relation to the inoculum: 0 (0 = no bacteria in triplicate samples of 5 ul (>99.95 killed of the inoculum).)
[2]; HLF 500 ug/ml, lactate 1%, 2 h incubation
  S. aureus killing, percentage of bacteria remaining in relation to the inoculum: 0 (0 = no bacteria in triplicate samples of 5 ul (>99.95 killed of the inoculum).)
[2]; HLF 500 ug/ml, lactate 1%, 5 h incubation
  S. aureus killing, percentage of bacteria remaining in relation to the inoculum: 0 (0 = no bacteria in triplicate samples of 5 ul (>99.95 killed of the inoculum).)
[2]; HLF 500 ug/ml, lactate 5%, 2 h incubation
  S. aureus killing, percentage of bacteria remaining in relation to the inoculum: 0 (0 = no bacteria in triplicate samples of 5 ul (>99.95 killed of the inoculum).)
[2]; HLF 500 ug/ml, lactate 5%, 5 h incubation
  S. aureus killing, percentage of bacteria remaining in relation to the inoculum: 0 (0 = no bacteria in triplicate samples of 5 ul (>99.95 killed of the inoculum).)
[2]; HLF 500 ug/ml, no lactal, 2 h incubation
  S. aureus killing, growth grade in droplet assay: (+++)
[2]; HLF 500 ug/ml, no lactal, 5 h incubation
  S. aureus killing, percentage of bacteria remaining in relation to the inoculum: 0.3%
[2]; without lactate, 0.25 and 0.125 mg/ml, 2 h of incubation
  microbicidal activity against S. aureus, LF compared with rHLF: somewhat more active
